Data reported in patent US9469841B2, “Prodrug activation in cancer cells using molecular switches” (The Johns Hopkins University, priority 2008, dated 2016).
Like-named read-outs stand apart in the source and are kept apart here.

What was measured:
[1] = tested on: MBP317-347; test: Effect of beta-cyclodextrin on maltose activation of switch MBP317-347; type: biochemical
Procedure: The rate of beta-lactam hydrolysis as a function of maltose (dots) follows the maltose-binding isotherm (blue). […] Initially, in the absence of any ligand, the rate of beta-lactam hydrolysis catalyzed by the switch is low. At about 5 minutes, maltose is added and the enzyme activity of the switch is turned on. At about 10 minutes, an excess of beta-cyclodextrin is added. This replaces maltose in the binding site and turns the enzyme activity of the switch off. At about 16 minutes, an excess of maltose is added which replaces beta-cyclodextrin and turns the enzyme activity of the switch back on.
Natural allosteric proteins often have modest (<10-fold) differences in function between the effector-bound and effector-unbound states. However very large differences in activity between the two states would be advantageous for many applications of protein switches. […] Using an iterative strategy involving random circular permutation and random insertion several switches were created that approach being on/off in nature (6). […] The creation of these switches was facilitated by a new directed evolution algorithm for non-homologous recombination that was developed for efficiently exploring the sequence space comprised of the possible fusions of the two proteins. […]

[2] = target: HIF-1a (Homo sapiens, UniProt Q16665); conditions: cited from earlier work
Chain of HIF-1a (Q16665 786-826 limits assumed): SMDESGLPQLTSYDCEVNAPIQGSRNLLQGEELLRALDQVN
Chain of HIF-1a (Q09472 331-417 partner limits assumed): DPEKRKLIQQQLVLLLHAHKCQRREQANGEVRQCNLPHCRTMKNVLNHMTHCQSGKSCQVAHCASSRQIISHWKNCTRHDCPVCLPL

[3] = tested on: GIA39 E. coli cells; test: Growth on "negative selection" minimal plates supplemented with 5FC; type: cell-based; parameters: key: + = growth; − = no growth
Procedure: Minimal media was used in the selection schemes and was based on a product mixture described by Sigma. For 1 L it containing 20 g of Select Agar (Sigma# A5054), 6.7 g of Yeast nitrogen base without amino acids (Sigma #Y0626), 1.92 g of Yeast synthetic drop-out without uracil (Sigma #Y1501), glucose to 2%, 1 mM IPTG and 50 μg/mL of chloramphenicol. For “negative” selection media, the above media was supplemented with 75 μg/mL or 25 μg/mL of 5FC and 1 μg/mL of uracil. For “positive” selection media, supplementation was with 25 μg/mL of cytosine, 1 mM arabinose and 100 μg/mL of ampicillin Each Bio-Assay dish contained 250 mL of selection media and each standard Petri dish contained 25 mL of media.
The selection scheme was developed to isolate library members whose CD activity is “off” in the absence of HIF-1a but “on” in the presence of HIF-1a. […] A GST-HIF-1a fusion was created that is under the control of the arabinose promoter on a plasmid that can coexist with the pDIM-C8 library plasmids. This “HIF-1a plasmid” is a variation of the pGEX plasmid and has ampicillin resistance. During selections, this HIF-1a plasmid will either be present to produce HIF-1a and activate the hybrid protein switches, or absent to avoid any production of HIF-1a.
During the negative selection, no HIF-1a plasmid was present in the cells. Thus, hybrids that are active in the absence of HIF-1a will convert the 5FC into 5FU and kill the cell. But, hybrids that are not active in the absence of HIF-1a will be able to use the minimal amount of uracil provided and grow to form colonies. The negative selection was performed twice in succession using the Bio-Assay dish size plates (2 plates each time with about 600,000 cells plated on each plate). The first time the negative selection media contained 75 μg/mL 5FC. The colonies that grew on this plated were recovered and then underwent a second negative selection to help ensure that any pDIM-C8 plasmids encoding a wild-type yCD were removed from the library. The second negative selection was performed the same as the first except that 25 μg/mL of 5FC was used. The cells that survived the second negative selection were harvested and then aliquoted. One aliquot was used to isolate library plasmids that were used in the positive selection that followed.
This experiment confirmed that the switch genes conferred sensitivity to 5FC depends on induction of expression of HIF1-a (see Table 2, below).
Cells harboring the switch genes in pDIM-C8 or cells with the same plasmid together with the HIF1-a plasmid were plated on minimal media plates supplemented with 5FC (i.e. the negative selection conditions). […]

[4] = tested on: E. coli cells; test: MIC of ampicillin for E. coli cells expressing switch, with and without maltose; type: cell-based; conditions: E. coli cells expressing MBP or BLA separately

For `OC[C@H]1O[C@@H]2O[C@H]3[C@H](O)[C@@H](O)[C@@H](O[C@H]4[C@H](O)[C@@H](O)[C@@H](O[C@H]5[C@H](O)[C@@H](O)[C@@H](O[C@H]6[C@H](O)[C@@H](O)[C@@H](O[C@H]7[C@H](O)[C@@H](O)[C@@H](O[C@H]8[C@H](O)[C@@H](O)[C@@H](O[C@H]1[C@H](O)[C@H]2O)O[C@@H]8CO)O[C@@H]7CO)O[C@@H]6CO)O[C@@H]5CO)O[C@@H]4CO)O[C@@H]3CO` [beta-cylcodextrin, beta-cyclodextrin], the “Effect on maltose activation of the switch” value [1] was “antagonist preventing maltose-activation”.

In the case of “CH1 domain: CH1 domain of p300, 100 amino acids, binds HIF-1a”, the Kd ([2]; in vitro at 25° C., read-out: dissociation constant of the CH1 domain and HIF-1a) is given as roughly 120 nM and the Kd ([2]; minimal domains CH1 and C-TAD of HIF-1a, read-out: Kd) is given as 120 nM.

B1: yCD: yeast cytosine deaminase containing the A23L/V108I/I140L mutations; positive control (protein, UniProt Q12178 1-158, looked up, variant A23L V108I I140L)
Cytosine deaminase: MVTGGMASKWDQKGMDIAYEEALLGYKEGGVPIGGCLINNKDGSVLGRGHNMRFQKGSATLHGEISTLENCGRLEGKVYKDTTLYTTLSPCDMCTGAIIMYGIPRCVIGENVNFKSKGEKYLQTRGHEVVVVDDERCKKLMKQFIDERPQDWFEDIGE
For B1, the “Growth on "negative selection" minimal plates supplemented with 75 μg/ml 5FC” value ([3]; w/ HIF1-a plasmid, 1 mM arabinose) was “−”, the “Growth on "negative selection" minimal plates supplemented with 75 μg/ml 5FC” value ([3]; w/ HIF1-a plasmid, No arabinose) was “−” and the “Growth on "negative selection" minimal plates supplemented with 75 μg/ml 5FC” value ([3]; w/o HIF1-a plasmid, 1 mM arabinose) was “−”. For the same molecule, the “Growth on "negative selection" minimal plates supplemented with 75 μg/ml 5FC” value ([3]; w/o HIF1-a plasmid, No arabinose) was “−”.

B2: BLA: the enzyme TEM-1 beta-lactamase (protein, UniProt P62593 24-286, looked up)
Beta-lactamase TEM: HPETLVKVKDAEDQLGARVGYIELDLNSGKILESFRPEERFPMMSTFKVLLCGAVLSRVDAGQEQLGRRIHYSQNDLVEYSPVTEKHLTDGMTVRELCSAAITMSDNTAANLLLTTIGGPKELTAFLHNMGDHVTRLDRWEPELNEAIPNDERDTTMPAAMATTLRKLLTGELLTLASRQQLIDWMEADKVAGPLLRSALPAGWFIADKSGAGERGSRGIIAALGPDGKPSRIVVIYTTGSQATMDERNRQIAEIGASLIKHW
With B2 the “Effect of maltose on MIC of ampicillin” value [4] was “not affect by maltose”.
